What was measured:
[1] = target: recombinant ScpA, residues 31-1032 (active Streptococcal C5a peptidase) (Streptococcus pyogenes) (UniProt P15926)
[2] = target: T1, ScpA_(S512A), active site serine to alanine mutant of recombinant Streptococcal C5a peptidase ScpA, residues … (Streptococcus pyogenes, UniProt P15926 31-1032, S512A); assay: SPR; His-tagged rhC5a immobilised on NTA sensor chip, ScpA_(S512A) flowed over; 25 °C; Hepes buffer with 550 mM NaCl; 1:1 Langmuir model; conditions: both partners purified
T1 construct: mimics the form released from the cell surface by SpeB; catalytic residues D130, H193, S512; also called S512A active site mutant of ScpA; source: recombinant, from plasmid pGEX ScpA_((31-1032)) mutated with QuickChange II; purified
T1 sequence: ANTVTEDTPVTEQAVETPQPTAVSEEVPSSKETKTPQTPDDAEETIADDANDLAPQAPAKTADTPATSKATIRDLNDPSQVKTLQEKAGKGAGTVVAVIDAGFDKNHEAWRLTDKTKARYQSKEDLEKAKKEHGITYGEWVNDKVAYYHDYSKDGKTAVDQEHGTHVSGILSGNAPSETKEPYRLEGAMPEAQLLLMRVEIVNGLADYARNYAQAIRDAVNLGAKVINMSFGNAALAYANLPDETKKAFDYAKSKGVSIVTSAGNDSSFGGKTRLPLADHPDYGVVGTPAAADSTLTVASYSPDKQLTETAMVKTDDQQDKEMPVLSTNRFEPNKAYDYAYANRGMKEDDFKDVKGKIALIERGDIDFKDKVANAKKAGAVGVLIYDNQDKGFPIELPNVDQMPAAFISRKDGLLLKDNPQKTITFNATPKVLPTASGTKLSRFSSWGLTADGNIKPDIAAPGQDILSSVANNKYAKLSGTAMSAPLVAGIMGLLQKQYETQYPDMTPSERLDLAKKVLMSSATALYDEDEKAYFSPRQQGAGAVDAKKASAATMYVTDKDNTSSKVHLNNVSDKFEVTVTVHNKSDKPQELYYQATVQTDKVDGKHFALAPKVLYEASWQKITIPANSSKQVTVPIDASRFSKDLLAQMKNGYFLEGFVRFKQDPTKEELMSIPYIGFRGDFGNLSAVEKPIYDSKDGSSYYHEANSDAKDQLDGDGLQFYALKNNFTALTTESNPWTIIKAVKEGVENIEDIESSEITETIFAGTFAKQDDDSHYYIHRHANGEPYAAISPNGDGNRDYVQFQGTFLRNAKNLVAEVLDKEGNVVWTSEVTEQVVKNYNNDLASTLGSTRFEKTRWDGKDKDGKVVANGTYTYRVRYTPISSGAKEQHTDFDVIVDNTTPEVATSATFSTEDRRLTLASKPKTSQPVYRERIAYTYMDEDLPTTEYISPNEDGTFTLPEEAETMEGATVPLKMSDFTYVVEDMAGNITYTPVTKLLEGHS

[3] = target: T1, ScpA_(S512A), active site serine to …; assay: SPR; His-tagged rhC5a immobilised on NTA sensor chip, ScpA_(S512A) flowed over; 25 °C; Hepes buffer with 750 mM NaCl; 1:1 Langmuir model; conditions: both partners purified
[4] = target: T1, ScpA_(S512A), active site serine to …; assay: ITC; ScpA_(S512A) (18 μM) in the cell titrated with 170 μM rhC5a; 25 °C; 50 mM Hepes-KOH pH 7.5, 150 mM NaCl; one set of sites model; KD^ITC derived from KA; conditions: both partners purified
[5] = target: T1, ScpA_(S512A), active site serine to …; assay: SPR; His-tagged rhC5a immobilised on NTA sensor chip, ScpA_(S512A) flowed over; 25 °C; Hepes buffer with 350 mM NaCl; 1:1 Langmuir model; conditions: both partners purified
[6] = target: T1, ScpA_(S512A), active site serine to …; assay: SPR; His-tagged C5a peptide immobilised on NTA sensor chip (30-40 RU), ScpA_(S512A) flowed over; 25 °C; 10 mM Hepes-KOH pH 7.5, 150 mM NaCl, 0.005% Tween 20, 50 μM EDTA; 1:1 Langmuir model with drifting baseline; conditions: both partners purified
[7] = target: T1, ScpA_(S512A), active site serine to …; assay: SPR; His-tagged rhC5a immobilised on NTA sensor chip, ScpA_(S512A) flowed over; 25 °C; Hepes buffer with 950 mM NaCl; 1:1 Langmuir model; conditions: both partners purified
[8] = target: T1, ScpA_(S512A), active site serine to …; assay: SPR; competition in solution: 40 RU HT-rhC5a_(core) immobilised on NTA chip; ScpA_(S512A) (700 nM) pre-incubated with rhC5a-HT (0-2000 nM) 1 hr on ice in SPR running buffer, then injected; Req fitted by the method of Morelock et al. to give KD^Sol; conditions: both partners purified
[9] = target: recombinant human C5a des Arg (rhC5adR), N-ter hexa-histidine tagged (human); assay: SPR; His-tagged C5a peptide immobilised on NTA sensor chip (30-40 RU), ScpA_(S512A) flowed over; 25 °C; 10 mM Hepes-KOH pH 7.5, 150 mM NaCl, 0.005% Tween 20, 50 μM EDTA; 1:1 Langmuir model with drifting baseline
rhC5a_(K49A) (human) = assay: as above
[10] = target: rhC5a_(core), N-terminal cleavage product (PN) of rhC5a, residues 1-67 (human); assay: as above
rhC5a_(R37A) (human) = assay: as above
rhC5a_(R40A) (human) = assay: as above
rhC5a_(R46A) (human) = assay: as above
[11] = target: rhC5a_(K12A,K14A) (human); assay: as above
rhC5a_(K4A,K5A) (human) = assay: as above

Molecule: doubly BODIPY labelled His-tagged rhC5aC75 (rhC5aC75-BODIPY) (natural protein)
- Km of cleavage of rhC5aC75-BODIPY (16-500 nM) by 180 pM ScpA, fluorescence progress curves, 25 °C, PBS with 0.1% Tween 20 [1]: 185 nM

B1: recombinant human C5a, N-ter hexa-histidine tagged (rhC5a) (natural protein, UniProt P01031 678-751, looked up)
chain: TLQKKIEEIAAKYKHSVVKKCCYDGACVNNDETCEQRAARISLGPRCIKAFTECCVVASQLRANISHKDMQLGR
modifications: β-mercaptoethanol added to C27 in the refolding process
notes: numbers count on: the mature C5a (1-74); His-tagged form immobilised on the NTA chip in SPR; also called full length rhC5a; not shown: His6, N-terminal, kept
- Kd [2]: 140 nM
- koff [2]: 0.0054 s⁻¹
- kon [2]: 39200 M⁻¹ s⁻¹
- Kd [3]: 256 nM
- koff [3]: 0.00651 s⁻¹
- kon [3]: 25600 M⁻¹ s⁻¹
- Kd [4]: 30.8 nM
- dH [4]: -9.4 kcal/mol
- Kd [5]: 63.5 nM
- koff [5]: 0.00431 s⁻¹
- kon [5]: 68500 M⁻¹ s⁻¹
- Kd [6]: 34 nM
- koff [6]: 0.0044 s⁻¹
- kon [6]: 131000 M⁻¹ s⁻¹
- Kd [7]: 466 nM
- koff [7]: 0.0091 s⁻¹
- kon [7]: 19500 M⁻¹ s⁻¹

B2: His-tagless form of rhC5a (rhC5a-HT) (natural protein, human, UniProt P01031 678-751, looked up)
chain: TLQKKIEEIAAKYKHSVVKKCCYDGACVNNDETCEQRAARISLGPRCIKAFTECCVVASQLRANISHKDMQLGR
modifications: β-mercaptoethanol added to C27 in the refolding process
notes: numbers count on: the mature C5a (1-74); also called rhC5a-HT(sol); tag-less form rhC5a; source: recombinant rhC5a (pProExHTb) treated with TEV protease (Sigma Merck) to remove the His tag; not shown: His6, N-terminal, cleaved
- Kd [8]: 11.1 nM

B3: ScpA_(S512A), active site serine to alanine mutant of recombinant Streptococcal C5a peptidase ScpA, residues 31-1032 (enzyme)
chain: ANTVTEDTPVTEQAVETPQPTAVSEEVPSSKETKTPQTPDDAEETIADDANDLAPQAPAKTADTPATSKATIRDLNDPSQVKTLQEKAGKGAGTVVAVIDAGFDKNHEAWRLTDKTKARYQSKEDLEKAKKEHGITYGEWVNDKVAYYHDYSKDGKTAVDQEHGTHVSGILSGNAPSETKEPYRLEGAMPEAQLLLMRVEIVNGLADYARNYAQAIRDAVNLGAKVINMSFGNAALAYANLPDETKKAFDYAKSKGVSIVTSAGNDSSFGGKTRLPLADHPDYGVVGTPAAADSTLTVASYSPDKQLTETAMVKTDDQQDKEMPVLSTNRFEPNKAYDYAYANRGMKEDDFKDVKGKIALIERGDIDFKDKVANAKKAGAVGVLIYDNQDKGFPIELPNVDQMPAAFISRKDGLLLKDNPQKTITFNATPKVLPTASGTKLSRFSSWGLTADGNIKPDIAAPGQDILSSVANNKYAKLSGTAMSAPLVAGIMGLLQKQYETQYPDMTPSERLDLAKKVLMSSATALYDEDEKAYFSPRQQGAGAVDAKKASAATMYVTDKDNTSSKVHLNNVSDKFEVTVTVHNKSDKPQELYYQATVQTDKVDGKHFALAPKVLYEASWQKITIPANSSKQVTVPIDASRFSKDLLAQMKNGYFLEGFVRFKQDPTKEELMSIPYIGFRGDFGNLSAVEKPIYDSKDGSSYYHEANSDAKDQLDGDGLQFYALKNNFTALTTESNPWTIIKAVKEGVENIEDIESSEITETIFAGTFAKQDDDSHYYIHRHANGEPYAAISPNGDGNRDYVQFQGTFLRNAKNLVAEVLDKEGNVVWTSEVTEQVVKNYNNDLASTLGSTRFEKTRWDGKDKDGKVVANGTYTYRVRYTPISSGAKEQHTDFDVIVDNTTPEVATSATFSTEDRRLTLASKPKTSQPVYRERIAYTYMDEDLPTTEYISPNEDGTFTLPEEAETMEGATVPLKMSDFTYVVEDMAGNITYTPVTKLLEGHS
- Kd [9]: 191 nM
- koff [9]: 0.0118 s⁻¹
- kon [9]: 61700 M⁻¹ s⁻¹
- Kd (rhC5a_(K49A) (human)): 26 nM
- koff (rhC5a_(K49A) (human)): 0.005 s⁻¹
- kon (rhC5a_(K49A) (human)): 195000 M⁻¹ s⁻¹
- Kd [10]: 240 nM
- koff [10]: 0.0085 s⁻¹
- kon [10]: 35200 M⁻¹ s⁻¹
- Kd (rhC5a_(R37A) (human)): 217 nM
- koff (rhC5a_(R37A) (human)): 0.0176 s⁻¹
- kon (rhC5a_(R37A) (human)): 81200 M⁻¹ s⁻¹
- Kd (rhC5a_(R40A) (human)): 234 nM
- koff (rhC5a_(R40A) (human)): 0.0205 s⁻¹
- kon (rhC5a_(R40A) (human)): 88000 M⁻¹ s⁻¹
- Kd (rhC5a_(R46A) (human)): 162 nM
- koff (rhC5a_(R46A) (human)): 0.0178 s⁻¹
- kon (rhC5a_(R46A) (human)): 111000 M⁻¹ s⁻¹
- Kd [11]: 25.6 nM
- koff [11]: 0.00405 s⁻¹
- kon [11]: 158000 M⁻¹ s⁻¹
- Kd (rhC5a_(K4A,K5A) (human)): 32.5 nM
- koff (rhC5a_(K4A,K5A) (human)): 0.00583 s⁻¹
- kon (rhC5a_(K4A,K5A) (human)): 180000 M⁻¹ s⁻¹

Source: publication PMC8052502, “Enzyme kinetic and binding studies identify determinants of specificity for the immunomodulatory enzyme ScpA, a C5a inactivating bacterial protease” (Computational and Structural Biotechnology Journal, 2012)
